{
  "source": "patent US20240307442",
  "data": [
    {"protein": "Active Neutrophil Elastase (protein) IVGGRRARPHAWPFMVSLQLRGGHFCGATLIAPNFVMSAAHCVANVNVRAVRVVLGAHNLSRREPTRQVFAVQRIFENGYDPVNLLNDIVILQLNGSATINANVQVAQLPAQGRRLGNGVQCLAMGWGLLGRNRGIASVLQELNVTVVTSLCRRSNVCTLVRGRQAGVCFGDSGSPLVCNGLIHGIASFVRGGCASGLYPDAFAPVAQFVNWIDSIIQ", "values": [
      {"measurement": "Western Blot of ECM molecules degraded by culture media", "setting": "fibronectin", "result": "NE released by GCC CAR CK+NE cells can degrade ECM molecules when GCC CAR CK+NE Cells are co-cultured with the substrate cells"},
      {"measurement": "Western Blot of ECM molecules degraded by culture media", "setting": "collagen IV", "result": "NE released by GCC CAR CK+NE cells can degrade ECM molecules when GCC CAR CK+NE Cells are co-cultured with the substrate cells"},
      {"measurement": "Western Blot of ECM molecules degraded by culture media", "setting": "collagen I", "result": "NE released by GCC CAR CK+NE cells can degrade ECM molecules when GCC CAR CK+NE Cells are co-cultured with the substrate cells"}
    ]}
  ]
}
